“Also recorded” adds a separate entry of the source.
Assays:
[1] = biological target: CXCR6 (Homo sapiens, UniProt O00574); assay: Arrestin agonist mode; format: cell-based; details: read-out: RC50 (the source's name)
[2] = biological target: PROKR1 (Homo sapiens, UniProt Q8TCW9); assay: Arrestin agonist mode; format: cell-based; details: read-out: RC50 (the source's name)
[3] = biological target: PROKR2 (Homo sapiens, UniProt Q8NFJ6); assay: Arrestin agonist mode; format: cell-based; details: read-out: RC50 (the source's name)
Chain of PROKR2 (Q8NFJ6 whole entry): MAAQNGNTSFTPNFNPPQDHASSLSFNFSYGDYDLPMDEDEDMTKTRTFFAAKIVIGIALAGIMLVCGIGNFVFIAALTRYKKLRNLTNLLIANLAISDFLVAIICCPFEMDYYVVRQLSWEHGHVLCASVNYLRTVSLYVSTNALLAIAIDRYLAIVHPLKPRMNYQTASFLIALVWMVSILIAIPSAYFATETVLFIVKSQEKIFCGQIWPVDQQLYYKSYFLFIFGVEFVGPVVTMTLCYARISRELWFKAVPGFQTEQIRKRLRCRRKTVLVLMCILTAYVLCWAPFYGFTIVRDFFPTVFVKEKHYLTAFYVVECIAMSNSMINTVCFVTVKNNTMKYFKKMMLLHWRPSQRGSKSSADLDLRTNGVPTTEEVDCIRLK

[4] = biological target: C5L2 (Homo sapiens, UniProt Q9P296); assay: Arrestin agonist mode; format: cell-based; details: read-out: RC50 (the source's name)
Chain of C5L2 (Q9P296 whole entry): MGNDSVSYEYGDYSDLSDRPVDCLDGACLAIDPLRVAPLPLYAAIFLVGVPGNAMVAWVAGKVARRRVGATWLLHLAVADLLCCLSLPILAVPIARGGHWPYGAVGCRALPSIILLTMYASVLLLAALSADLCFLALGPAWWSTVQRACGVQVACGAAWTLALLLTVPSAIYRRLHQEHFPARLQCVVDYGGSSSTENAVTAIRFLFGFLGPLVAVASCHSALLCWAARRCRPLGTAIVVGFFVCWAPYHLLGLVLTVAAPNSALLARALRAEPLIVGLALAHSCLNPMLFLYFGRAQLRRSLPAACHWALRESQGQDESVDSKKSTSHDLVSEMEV

[5] = biological target: T1, C5aR1 (Homo sapiens, UniProt P21730); assay: Arrestin agonist mode; format: cell-based; details: read-out: RC50 (the source's name)
T1 sequence (P21730 1-350): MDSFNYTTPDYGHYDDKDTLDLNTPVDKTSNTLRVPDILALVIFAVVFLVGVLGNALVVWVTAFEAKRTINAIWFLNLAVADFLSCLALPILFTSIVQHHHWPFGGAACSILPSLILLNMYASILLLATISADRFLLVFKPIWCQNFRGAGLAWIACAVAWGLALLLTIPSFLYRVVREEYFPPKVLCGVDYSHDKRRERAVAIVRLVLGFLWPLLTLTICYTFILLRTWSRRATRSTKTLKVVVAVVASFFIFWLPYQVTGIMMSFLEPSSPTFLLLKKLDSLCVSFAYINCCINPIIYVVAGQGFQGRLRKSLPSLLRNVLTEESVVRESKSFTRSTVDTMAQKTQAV

[6] = 24 h body weight change in rats; format: in vivo, rat; details: 4th ventricle injection
[7] = Food intake and meal pattern after central injection in rats; format: in vivo, rat; details: for food intake: 4th ventricle injection
Protocol: Rats were exposed to kaolin for at least 5 days prior to measuring kaolin consumption in pica testing. Except for studies conducted in the BioDaq, for all feeding studies rats were housed in hanging wire cages to allow for accurate measurement of food spillage.
For cannula implantation, rats were anesthetized by intraperitoneal injection of a mixture containing ketamine (90 mg/kg, Butler Animal Health Supply), xylazine (2.7 mg/kg, Anased), and acepromazine (0.64 mg/kg, Butler Animal Health Supply) (KAX) and then placed into a stereotaxic apparatus. Each rat was stereotaxically implanted with a guide cannula (26-ga, Plastics One) aimed at the fourth ventricle (guide cannula coordinates: on midline, 2.5 mm anterior to occipital suture, 5.2 mm ventral to skull; internal cannula aimed 7.2 mm ventral to skull) or the lateral ventricle (guide cannula coordinates: 1.5 mm lateral to midline, 0.9 mm posterior to bregma, 1.8 mm ventral to skull; internal cannula aimed 3.8 mm ventral to skull). For all cannulas, dummies (no projection beyond guide) were inserted in the guide cannula and left until infusions were performed. For all surgeries, rats received post-operative temperature support and analgesia was provided immediately following surgery and for two post-operative days (2 mg/kg meloxicam).

[8] = biological target: T2, RXFP3 (Homo sapiens, UniProt Q9NSD7); assay: Arrestin agonist mode; format: cell-based; details: read-out: RC50 (the source's name)
T2 sequence (Q9NSD7 1-469): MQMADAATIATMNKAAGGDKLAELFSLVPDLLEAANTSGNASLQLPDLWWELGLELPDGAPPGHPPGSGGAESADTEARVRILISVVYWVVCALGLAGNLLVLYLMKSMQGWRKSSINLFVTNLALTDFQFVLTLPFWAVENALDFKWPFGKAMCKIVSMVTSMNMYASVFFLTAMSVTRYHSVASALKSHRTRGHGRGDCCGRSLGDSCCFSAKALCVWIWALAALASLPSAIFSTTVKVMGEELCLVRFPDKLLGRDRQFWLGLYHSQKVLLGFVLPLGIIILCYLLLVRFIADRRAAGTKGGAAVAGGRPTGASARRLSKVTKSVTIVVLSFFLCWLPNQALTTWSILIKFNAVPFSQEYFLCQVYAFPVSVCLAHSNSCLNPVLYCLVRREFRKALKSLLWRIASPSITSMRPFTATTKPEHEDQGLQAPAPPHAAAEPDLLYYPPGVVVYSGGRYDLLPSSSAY

[9] = Insulin tolerance test after 4th ventricle ODN; format: in vivo, rat; details: 4th ventricle pretreatment then ODN 200 μg/2 μL; chow rats
[10] = biological target: T3, relaxin-3 receptor (Rattus norvegicus, UniProt Q5Y987); assay: Central ODN antagonizes relaxin-3 induced hyperphagia; format: in vivo; details: injection into the nucleus incertus; rats
T3 construct: expressed a high level of the relaxin-3 receptor; from tissue; host or cells: rat brain, nucleus incertus (living animal)
T3 sequence (Q5Y987 1-469): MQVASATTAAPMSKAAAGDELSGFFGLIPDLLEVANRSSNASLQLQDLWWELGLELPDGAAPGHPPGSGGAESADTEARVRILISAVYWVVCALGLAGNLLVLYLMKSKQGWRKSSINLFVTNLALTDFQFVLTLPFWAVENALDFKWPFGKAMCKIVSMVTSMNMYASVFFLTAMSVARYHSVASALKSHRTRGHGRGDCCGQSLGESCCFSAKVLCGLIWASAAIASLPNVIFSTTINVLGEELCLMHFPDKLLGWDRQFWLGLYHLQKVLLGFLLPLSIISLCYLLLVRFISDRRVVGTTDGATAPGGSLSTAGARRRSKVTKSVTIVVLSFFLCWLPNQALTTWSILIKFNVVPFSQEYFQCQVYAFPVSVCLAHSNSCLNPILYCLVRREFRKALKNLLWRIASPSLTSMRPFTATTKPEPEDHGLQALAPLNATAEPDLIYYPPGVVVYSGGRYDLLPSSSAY
Protocol: Rats were stereotaxically implanted with a bilateral guide cannula (26-ga, Plastics One) aimed at the nucleus incertus (guide cannula coordinates: ±0.5 lateral to midline, 9.5 mm […] to bregma, 5.8 mm ventral to skull; internal cannula aimed 7.8 mm ventral to skull). Recombinant human relaxin-3 was purchased (130-10, PreproTech Inc.) and ODN was synthesized by the Doyle laboratory. […] 24 h food intake was recorded in a Biodaq system (Research Diets, Inc).

[11] = biological target: T4, CCR9 (Homo sapiens, UniProt P51686); assay: Arrestin agonist mode; format: cell-based; details: read-out: RC50 (the source's name)
T4 sequence (P51686 1-369): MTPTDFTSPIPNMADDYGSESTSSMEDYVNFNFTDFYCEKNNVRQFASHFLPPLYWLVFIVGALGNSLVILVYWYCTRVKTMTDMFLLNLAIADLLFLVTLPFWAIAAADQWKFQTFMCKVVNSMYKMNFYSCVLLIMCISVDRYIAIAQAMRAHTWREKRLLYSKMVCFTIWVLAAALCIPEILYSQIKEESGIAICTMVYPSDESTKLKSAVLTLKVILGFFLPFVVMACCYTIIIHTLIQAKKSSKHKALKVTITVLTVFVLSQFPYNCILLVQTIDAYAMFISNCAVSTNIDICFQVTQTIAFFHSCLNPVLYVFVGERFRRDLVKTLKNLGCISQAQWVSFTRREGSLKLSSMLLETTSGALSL

[12] = biological target: T5, CCR4 (Homo sapiens, UniProt P51679); assay: Arrestin agonist mode; format: cell-based; details: read-out: RC50 (the source's name)
T5 sequence (P51679 1-360): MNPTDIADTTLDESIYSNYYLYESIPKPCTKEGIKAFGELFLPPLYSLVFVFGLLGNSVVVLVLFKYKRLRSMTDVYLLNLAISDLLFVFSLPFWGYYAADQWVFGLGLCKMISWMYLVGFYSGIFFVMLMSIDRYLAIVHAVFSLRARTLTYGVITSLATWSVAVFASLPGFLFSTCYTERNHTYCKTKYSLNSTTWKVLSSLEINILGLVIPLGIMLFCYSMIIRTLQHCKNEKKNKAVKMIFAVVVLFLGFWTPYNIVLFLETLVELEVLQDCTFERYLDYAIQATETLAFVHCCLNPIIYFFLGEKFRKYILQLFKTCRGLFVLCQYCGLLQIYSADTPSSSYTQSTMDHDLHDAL

[13] = biological target: CCR8 (Homo sapiens, UniProt P51685); assay: Arrestin agonist mode; format: cell-based; details: read-out: RC50 (the source's name)
[14] = biological target: T6, CCR10 (Homo sapiens, UniProt P46092); assay: Arrestin agonist mode; format: cell-based; details: read-out: RC50 (the source's name)
T6 sequence (P46092 1-362): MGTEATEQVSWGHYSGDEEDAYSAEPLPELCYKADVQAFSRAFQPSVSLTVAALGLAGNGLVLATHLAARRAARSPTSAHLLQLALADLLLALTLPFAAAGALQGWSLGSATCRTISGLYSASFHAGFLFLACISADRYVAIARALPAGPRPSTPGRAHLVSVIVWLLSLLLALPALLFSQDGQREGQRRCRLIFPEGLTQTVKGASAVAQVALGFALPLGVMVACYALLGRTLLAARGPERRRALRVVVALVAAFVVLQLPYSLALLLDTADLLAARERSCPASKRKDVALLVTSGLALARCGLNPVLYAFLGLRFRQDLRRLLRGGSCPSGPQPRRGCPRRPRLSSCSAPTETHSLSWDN

[15] = 4th ventricle, chow-maintained rats

Chain of PROKR1 (Q8TCW9 whole entry): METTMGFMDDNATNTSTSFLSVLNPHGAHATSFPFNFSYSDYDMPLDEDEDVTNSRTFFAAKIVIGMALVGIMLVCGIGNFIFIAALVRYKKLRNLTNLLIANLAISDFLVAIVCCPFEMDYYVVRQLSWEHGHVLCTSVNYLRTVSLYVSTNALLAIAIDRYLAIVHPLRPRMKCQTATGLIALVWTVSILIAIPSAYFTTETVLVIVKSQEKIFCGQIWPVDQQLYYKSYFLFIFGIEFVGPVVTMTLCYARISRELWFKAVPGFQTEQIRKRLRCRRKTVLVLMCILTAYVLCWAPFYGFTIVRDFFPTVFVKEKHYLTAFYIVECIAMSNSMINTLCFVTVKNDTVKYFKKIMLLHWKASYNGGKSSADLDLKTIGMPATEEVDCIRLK
Chain of CXCR6 (O00574 whole entry): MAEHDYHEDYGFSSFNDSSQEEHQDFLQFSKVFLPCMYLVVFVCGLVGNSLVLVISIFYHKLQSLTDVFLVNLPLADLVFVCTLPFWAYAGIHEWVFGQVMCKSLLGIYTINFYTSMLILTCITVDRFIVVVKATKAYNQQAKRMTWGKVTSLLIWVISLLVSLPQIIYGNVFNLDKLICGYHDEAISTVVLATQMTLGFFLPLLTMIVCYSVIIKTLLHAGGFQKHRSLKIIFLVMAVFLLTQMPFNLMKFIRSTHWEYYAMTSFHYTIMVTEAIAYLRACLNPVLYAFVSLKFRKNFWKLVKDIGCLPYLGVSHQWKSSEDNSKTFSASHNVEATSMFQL

B1: CXCL16: control agonist (protein)
chain: NEGSVTGSCYCGKRISSDSPPSVQFMNRLRKHLRAYHRCLYYTRFQLLSWSVCGGNKDPWVQELMSCLDLKECGHAYSGIVAHQKHLLP
[1]
  EC50: 6.81 nM

B2: EG VEGF: control agonist (protein)
chain: AVITGACERDVQCGAGTCCAISLWLRGLRMCTPLGREGEECHPGSHKVPFFRKRKHHTCPCLPNLLCSRFPDGRYRCSMDLKNINF
[2]
  EC50: 17.7 nM
[3]
  EC50: 10.6 nM

B3: Complement C5a: control agonist (protein)
chain: TLQKKIEEIAAKYKHSVVKKCCYDGACVNNDETCEQRAARISLGPRCIKAFTECCVVASQLRANISHKDMQLGR
[4]
  EC50: 1.57 nM
[5]
  EC50: 1.38 nM

B4: recombinant DBI protein: Rat recombinant diazepam binding inhibitor (DBI) protein (LS-G136996, Lifespan Biosciences) (protein, UniProt P11030 2-87, looked up)
Acyl-CoA-binding protein: SQADFDKAAEEVKRLKTQPTDEEMLFIYSHFKQATVGDVNTDRPGLLDLKGKAKWDSWNKLKGTSKENAMKTYVEKVEELKKKYGI
[6]; HFD-maintained rats
  24 h body weight change: not significantly decreased
[6]; chow-maintained rats
  24 h body weight change: not significantly decreased
[7]; HFD-maintained rats
  food intake: not high-fat diet (HFD) rats
[7]; HFD-maintained rats, listed as DBI
  food intake: did not decrease food intake in HFD-maintained rats
[7]; chow-maintained rats
  food intake: suppresses food intake in chow fed rats; also recorded: hypophagic in chow
[7]; chow-maintained rats, listed as DBI
  food intake: significantly reduced food intake at 4, 5, and 7-24 hours post injection; also recorded: decreased food intake at 4, 5, and 7-24 hours post injection
[7]; [15]
  number of bouts: decreased the number of bouts at 8 and 21 hours post injection
  number of meals: decreased the number of meals at 8-10 and 12-21 hours post injection
  time spent in bouts: did not alter the time spent in bouts
  time spent in meals: decreased the time spent in meals 8-24 hours post injection

B5: Relaxin-3: Recombinant human relaxin-3 (130-10, PreproTech); control agonist of RXFP3 (protein)
chain 1: RAAPYGVRLCGREFIRAVIFTCGGSRWRRSDILAHEAMGDTFPDADADEDSLAGELDEAMGSSEWLALTKSPQAFYRGRPSWQGTPGVLRGSRDVLAGLSSSCCKWGCSKSEISSLC
chain 2: RAAPYGVRLCGREFIRAVIFTCGGSRWRRSDILAHEAMGDTFPDADADEDSLAGELDEAMGSSEWLALTKSPQAFYRGRPSWQGTPGVLRGSRDVLAGLSSSCCKWGCSKSEISSLC
[8]
  EC50: 11.9 nM
[9]
  effect of pretreatment on ODN improvement in insulin tolerance: block hindbrain ODN improvements in insulin tolerance
[10]
  24-hour food intake and body weight: increased 24-hour food intake and body weight

B6: CCL25: control agonist (protein)
chain: QGVFEDCCLAYHYPIGWAVLRRAWTYRIQEVSGSCNLPAAIFYLPKRHRKVCGNPKSREVQRAMKLLDARNKVFAKLHHNTQTFQAGPHAVKKLSSGNSKLSSSKFSNPISSSKRNVSLLISANSGL
[11]
  EC50: 173 nM

B7: CCL22: control agonist (protein)
chain: GPYGANMEDSVCCRDYVRYRLPLRVVKHFYWTSDSCPRPGVVLLTFRDKEICADPRVPWVKMILNKLSQ
[12]
  EC50: 3.44 nM

B8: CCL1: control agonist (protein)
chain: KSMQVPFSRCCFSFAEQEIPLRAILCYRNTSSICSNEGLIFKLKRGKEACALDTVGWVQRHRKMLRHCPSKRK
[13]
  EC50: 45.8 nM

B9: CCL27: control agonist (protein)
chain: FLLPPSTACCTQLYRKPLSDKLLRKVIQVELQEADGDCHLQAFVLHLAQRSICIHPQNPSLSQWFEHQERKLHGTLPKLNFGMLRKMG
[14]
  EC50: 26.3 nM
